Results reported in patent US20140050727A1 (MOCHIDA PHARMACEUTICAL, published 2014).
Positions count from the first letter of the chain named. Names and notes keep the numbering of the source. One block for each binder: values may come before it.

How the values were obtained:
Experiment in all cases: cell-based or functional assay
[1] = target: Human Factor Xa (human, UniProt P00742 41-488, limits assumed)
[2] = target: T1, Elastase, Human Neutrophil (human, UniProt P08246 30-247, limits assumed)
T1 sequence (looked up): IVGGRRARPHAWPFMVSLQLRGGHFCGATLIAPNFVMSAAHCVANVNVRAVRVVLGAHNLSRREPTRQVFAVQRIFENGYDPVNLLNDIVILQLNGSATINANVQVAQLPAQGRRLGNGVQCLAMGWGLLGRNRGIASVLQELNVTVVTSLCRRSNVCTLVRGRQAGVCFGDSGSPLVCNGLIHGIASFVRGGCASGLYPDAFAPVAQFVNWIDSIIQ

[3] = target: T2, human CD14 (human, UniProt P08571 20-375, limits assumed)
T2 sequence (looked up): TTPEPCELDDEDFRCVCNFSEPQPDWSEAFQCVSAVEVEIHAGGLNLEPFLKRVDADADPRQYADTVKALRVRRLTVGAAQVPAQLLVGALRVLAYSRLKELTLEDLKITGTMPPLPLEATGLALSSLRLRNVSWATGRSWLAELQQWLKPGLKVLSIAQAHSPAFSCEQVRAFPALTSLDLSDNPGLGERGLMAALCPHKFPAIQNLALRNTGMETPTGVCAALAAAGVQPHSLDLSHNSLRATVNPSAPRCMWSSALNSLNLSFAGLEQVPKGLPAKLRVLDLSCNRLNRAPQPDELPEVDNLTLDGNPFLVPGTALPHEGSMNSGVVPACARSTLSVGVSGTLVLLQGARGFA

Sequence of Human Factor Xa (P00742 41-488 limits assumed): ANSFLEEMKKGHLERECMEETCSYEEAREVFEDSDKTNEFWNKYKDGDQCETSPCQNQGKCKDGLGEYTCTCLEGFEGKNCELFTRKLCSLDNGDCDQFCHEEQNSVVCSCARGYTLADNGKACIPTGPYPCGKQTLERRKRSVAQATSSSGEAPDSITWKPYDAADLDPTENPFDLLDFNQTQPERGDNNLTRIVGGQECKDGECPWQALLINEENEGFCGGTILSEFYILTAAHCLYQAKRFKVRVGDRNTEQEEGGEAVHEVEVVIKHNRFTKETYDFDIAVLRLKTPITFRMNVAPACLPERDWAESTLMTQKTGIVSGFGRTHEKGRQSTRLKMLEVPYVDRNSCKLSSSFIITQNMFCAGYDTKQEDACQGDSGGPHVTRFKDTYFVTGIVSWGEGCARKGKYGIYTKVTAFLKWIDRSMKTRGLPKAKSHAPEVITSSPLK

Binder: AACNLPIVRGPCRAFIRLWAFDAVKGKCVLFPYGGCQGNGNKFYSEK (other) [polypeptide Q19R]
- FXa-inhibiting activity [1]: ~6 times that of polypeptide AN68

Binder: AACNLPIVRGPCRAFIKLWAFDAVKGKCVLFPYGGCQGNGNKFESEK (other) [polypeptide Q19K/Y46E]
- FXa-inhibiting activity [1]: ~10 times that of polypeptide AN68

Binder: AVLPQEEEGSGMAACNLPIVRGPCRAFIKLWAFDAVKGKCVLFPYGG (other) [polypeptide Q19K/Y46D]
- FXa-inhibiting activity [1]: ~20 times that of polypeptide AN68

B1: F1024S-SLPI(D2) with modified linker GSGGGGSGGGGSGGGGS (antibody)
heavy: QIQLVQSGPELKKPGESVKISCKASGYTFTDYAMNWVKQAPGNGLKWMGWINTQTGKPTYADDFKQRFVFSLETSASTAYLQINNLNIEDTATYFCTRSTFYYSSYIYGWYFDFWGPGTMVTVSSASTKGPSVFPLAPCSRSTSESTAALGCLVKDYFPEPVTVSWNSGALTSGVHTFPAVLQSSGLYSLSSVVTVPSSSLGTKTYTCNVDHKPSNTKVDKRVESKYGPPGPSGPAPEFLGGPSVFLFPPKPKDTLMISRTPEVTCVVVDVSQEDPEVQFNWYVDGVEVHNAKTKPREEQFNSTYRVVSVLTVLHQDWLNGKEYKCKVSNKGLPSSIEKTISKAKGQPREPQVYTLPPSQEEMTKNQVSLTCLVKGFYPSDIAVEWESNGQPENNYKTTPPVLDSDGSFFLYSRLTVDKSRWQEGNVFSCSVMHEALHNHYTQKSLSLSLGKGSGGGGSGGGGSGGGGSRRKPGKCPVTYGQCLMLNPPNFCEMDGQCKRDLKCCMGMCGKSCVSPVKA
light: DIVMTQSPTSISISVGERVTMNCKASQNVGSNVDWYQQKTGQSPKLLIYKASNRYTGVPDRFTGSGSGTDFTFTISNMQAVDLAVYYCMQSNTNPPWTFGGGTKLELKRTVAAPSVFIFPPSDEQLKSGTASVVCLLNNFYPREAKVQWKVDNALQSGNSQESVTEQDSKDSTYSLSSTLTLSKADYEKHKVYACEVTHQGLSSPVTKSFNRGEC
- 50% inhibitory concentration (elastase inhibitory activity) [2]: 11.6 µg/mL

B2: F1024S-SLPI(D1D2) (antibody)
heavy: QIQLVQSGPELKKPGESVKISCKASGYTFTDYAMNWVKQAPGNGLKWMGWINTQTGKPTYADDFKQRFVFSLETSASTAYLQINNLNIEDTATYFCTRSTFYYSSYIYGWYFDFWGPGTMVTVSSASTKGPSVFPLAPCSRSTSESTAALGCLVKDYFPEPVTVSWNSGALTSGVHTFPAVLQSSGLYSLSSVVTVPSSSLGTKTYTCNVDHKPSNTKVDKRVESKYGPPGPSGPAPEFLGGPSVFLFPPKPKDTLMISRTPEVTCVVVDVSQEDPEVQFNWYVDGVEVHNAKTKPREEQFNSTYRVVSVLTVLHQDWLNGKEYKCKVSNKGLPSSIEKTISKAKGQPREPQVYTLPPSQEEMTKNQVSLTCLVKGFYPSDIAVEWESNGQPENNYKTTPPVLDSDGSFFLYSRLTVDKSRWQEGNVFSCSVMHEALHNHYTQKSLSLSLGKGSGKSFKAGVCPPKKSAQCLRYKKPECQSDWQCPGKKRCCPDTCGIKCLDPVDTPNPTRRKPGKCPVTYGQCLMLNPPNFCEMDGQCKRDLKCCMGMCGKSCVSPVKA
light: B1 light
- 50% inhibitory concentration (elastase inhibitory activity) [2]: 22.5 µg/mL

B3: F1024S-SLPI(D2) (antibody)
heavy: QIQLVQSGPELKKPGESVKISCKASGYTFTDYAMNWVKQAPGNGLKWMGWINTQTGKPTYADDFKQRFVFSLETSASTAYLQINNLNIEDTATYFCTRSTFYYSSYIYGWYFDFWGPGTMVTVSSASTKGPSVFPLAPCSRSTSESTAALGCLVKDYFPEPVTVSWNSGALTSGVHTFPAVLQSSGLYSLSSVVTVPSSSLGTKTYTCNVDHKPSNTKVDKRVESKYGPPGPSGPAPEFLGGPSVFLFPPKPKDTLMISRTPEVTCVVVDVSQEDPEVQFNWYVDGVEVHNAKTKPREEQFNSTYRVVSVLTVLHQDWLNGKEYKCKVSNKGLPSSIEKTISKAKGQPREPQVYTLPPSQEEMTKNQVSLTCLVKGFYPSDIAVEWESNGQPENNYKTTPPVLDSDGSFFLYSRLTVDKSRWQEGNVFSCSVMHEALHNHYTQKSLSLSLGKGSRRKPGKCPVTYGQCLMLNPPNFCEMDGQCKRDLKCCMGMCGKSCVSPVKA
light: B1 light
- 50% inhibitory concentration (elastase inhibitory activity) [2]: 26.9 µg/mL

B4: F1024S-D2(3) (antibody)
heavy: QIQLVQSGPELKKPGESVKISCKASGYTFTDYAMNWVKQAPGNGLKWMGWINTQTGKPTYADDFKQRFVFSLETSASTAYLQINNLNIEDTATYFCTRSTFYYSSYIYGWYFDFWGPGTMVTVSSASTKGPSVFPLAPCSRSTSESTAALGCLVKDYFPEPVTVSWNSGALTSGVHTFPAVLQSSGLYSLSSVVTVPSSSLGTKTYTCNVDHKPSNTKVDKRVESKYGPPGPSGPAPEFLGGPSVFLFPPKPKDTLMISRTPEVTCVVVDVSQEDPEVQFNWYVDGVEVHNAKTKPREEQFNSTYRVVSVLTVLHQDWLNGKEYKCKVSNKGLPSSIEKTISKAKGQPREPQVYTLPPSQEEMTKNQVSLTCLVKGFYPSDIAVEWESNGQPENNYKTTPPVLDSDGSFFLYSRLTVDKSRWQEGNVFSCSVMHEALHNHYTQKSLSLSLGKGSTVAACNLPIVSGPCRAFIKLWAFDAVKGKCVLFPYGGCQGNGNKFDSEKECREYCGVPGDGDEELLRFSN
light: B1 light
- 50% inhibitory concentration (elastase inhibitory activity) [2]: 8.9 µg/mL
- IC50 for inhibition of LPS-induced E-Selectin expression in HUVEC [3]: 0.43 µg/mL
- IC50 for inhibition of LPS-induced IL-6 production in HUVEC [3]: 0.38 µg/mL
- IC50 for inhibition of LPS-induced TNF-α production in human peripheral blood mononuclear cells [3]: 0.58 µg/mL
- IC50 for inhibition of LPS-induced procoagulant activity (PCA) in human peripheral blood mononuclear cells [3]: 20.9 µg/mL

B5: modified F1024S-D2(R11S/R15T/Q19K/Y46D) (antibody)
heavy: B4 heavy with R469T
light: B1 light
- 50% inhibitory concentration (elastase inhibitory activity) [2]: 4.43 µg/mL

The remaining lines, values ahead:

- FXa-inhibiting activity [1]: ~10 times that of polypeptide AN68
Binder: AACNLPIVRGPCRAFIRLWAFDAVKGKCVLFPYGGCQGNGNKFESEK (other) [polypeptide Q19R/Y46E]

- FXa-inhibiting activity [1]: ~3 times that of polypeptide AN68
Binder: AACNLPIVEGPCRAFIQLWAFDAVKGKCVLFPYGGCQGNGNKFESEK (other) [polypeptide R11E/Y46E]

- FXa-inhibiting activity [1]: ~13 times that of polypeptide AN68
Binder: AVLPQEEEGSGMAACNLPIVEGPCRAFIKLWAFDAVKGKCVLFPYGG (other) [polypeptide R11E/Q19K/Y46E]

- FXa-inhibiting activity [1]: ~5 times that of polypeptide AN68
Binder: AVLPQEEEGSGMAACNLPIVDGPCRAFIKLWAFDAVKGKCVLFPYGG (other) [polypeptide R11D/Q19K/Y46D]

- FXa-inhibiting activity [1]: ~20 times that of polypeptide AN68
Binder: AVLPQEEEGSGMAACNLPIVQGPCRAFIKLWAFDAVKGKCVLFPYGG (other) [polypeptide R11Q/Q19K/Y46D]

- FXa-inhibiting activity [1]: ~18 times that of polypeptide AN68
Binder: AVLPQEEEGSGMAACNLPIVRGPCRAFIRLWAFDAVKGKCVLFPYGG (other) [polypeptide Q19R/Y46D]

- FXa-inhibiting activity [1]: ~16 times that of polypeptide AN68
Binder: AVLPQEEEGSGMAACNLPIVLGPCRAFIKLWAFDAVKGKCVLFPYGG (other) [polypeptide R11L/Q19K/Y46D]
